In publication PMC11601262:

Biological target: T1, CFP tagged hABHD5 (FCCS) (human), Q8WTS1
T1 chain: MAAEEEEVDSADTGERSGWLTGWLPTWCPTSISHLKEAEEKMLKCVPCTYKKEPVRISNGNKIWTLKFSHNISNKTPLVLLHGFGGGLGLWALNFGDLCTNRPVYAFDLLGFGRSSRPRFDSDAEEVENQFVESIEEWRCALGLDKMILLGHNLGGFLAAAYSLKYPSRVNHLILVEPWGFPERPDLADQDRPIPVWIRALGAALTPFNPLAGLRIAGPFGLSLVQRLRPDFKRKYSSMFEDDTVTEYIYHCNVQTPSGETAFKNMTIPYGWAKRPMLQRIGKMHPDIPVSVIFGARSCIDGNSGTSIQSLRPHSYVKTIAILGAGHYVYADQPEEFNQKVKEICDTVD
Assay: fluorescence cross-correlation spectroscopy
Conditions: remark: other sources report otherwise

B1: hPNPLA3 WT-EYFP, Q9NST1 1-481 (natural protein)
chain: MYDAERGWSLSFAGCGFLGFYHVGATRCLSEHAPHLLRDARMLFGASAGALHCVGVLSGIPLEQTLQVLSDLVRKARSRNIGIFHPSFNLSKFLRQGLCKCLPANVHQLISGKIGISLTRVSDGENVLVSDFRSKDEVVDALVCSCFIPFYSGLIPPSFRGVRYVDGGVSDNVPFIDAKTTITVSPFYGEYDICPKVKSTNFLHVDITKLSLRLCTGNLYLLSRAFVPPDLKVLGEICLRGYLDAFRFLEEKGICNRPQPGLKSSSEGMDPEVAMPSWANMSLDSSPESAALAVRLEGDELLDHLRLSILPWDESILDTLSPRLATALSEEMKDKGGYMSKICNLLPIRIMSYVMLPCTLPVESAIAIVQRLVTWLPDMPDDVLWLQWVTSQVFTRVLMCLLPASRSQMPVSSQQASPCTPEQDWPCWTPCSPKGCPAETKAEATPRSILRSSLNFFLGNKVPAGAEGLSTFPSFSLEKSL
Binder B1 has a percent of ABHD5 co-diffusing with PNPLA3 of 24% and a percent of PNPLA3 co-diffusing with ABHD5 of 78%.
